target: T1, PCLO, Q9Y6V0; experiment: holdup assay; design: key: below the threshold = too weak to quantify, mostly under pKd 3.1 to 4; settings: modified: phospho on T at position -2 from the C-terminal residue
T1 sequence (Q9Y6V0 4491-4600, limits assumed, looked up): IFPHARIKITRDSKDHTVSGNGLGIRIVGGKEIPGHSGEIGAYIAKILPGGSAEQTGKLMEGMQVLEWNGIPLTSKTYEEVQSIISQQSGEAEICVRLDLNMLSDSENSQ

Binder	pKd
RLQRRRETQV [HPV18-E6_-2P, P06463]	below the threshold

target: T2, SYNJ2BP, P57105; experiment: holdup assay; design: key: below the threshold = too weak to quantify, mostly under pKd 3.1 to 4; settings: modified: phospho on T at position -2 from the C-terminal residue
T2 sequence (P57105 8-110, limits assumed, looked up): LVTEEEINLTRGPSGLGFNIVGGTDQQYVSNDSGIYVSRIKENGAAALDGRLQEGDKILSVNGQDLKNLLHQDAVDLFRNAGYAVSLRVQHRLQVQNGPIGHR

Binder	pKd
RLQRRRETQV [HPV18-E6_-2P, P06463]	below the threshold

target: T3, RHPN1, Q8TCX5; experiment: holdup assay; design: key: below the threshold = too weak to quantify, mostly under pKd 3.1 to 4; settings: modified: phospho on T at position -2 from the C-terminal residue
T3 sequence (Q8TCX5 508-602, limits assumed, looked up): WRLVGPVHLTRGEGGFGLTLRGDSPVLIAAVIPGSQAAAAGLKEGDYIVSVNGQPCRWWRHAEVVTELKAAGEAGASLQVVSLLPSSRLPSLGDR

Binder	pKd
RLQRRRETQV [HPV18-E6_-2P, P06463]	below the threshold

target: HTRA1, Q92743; experiment: holdup assay; design: key: below the threshold = too weak to quantify, mostly under pKd 3.1 to 4; settings: modified: phospho on T at position -2 from the C-terminal residue
Sequence (Q92743 360-477): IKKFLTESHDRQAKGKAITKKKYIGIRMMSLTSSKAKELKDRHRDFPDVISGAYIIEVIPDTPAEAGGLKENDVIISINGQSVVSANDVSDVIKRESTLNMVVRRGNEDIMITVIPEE

Binder	pKd
RLQRRRETQV [HPV18-E6_-2P, P06463]	below the threshold

target: MAGI2_4, Q86UL8; experiment: holdup assay; design: key: below the threshold = too weak to quantify, mostly under pKd 3.1 to 4; settings: modified: phospho on T at position -2 from the C-terminal residue
Sequence (Q86UL8 772-865): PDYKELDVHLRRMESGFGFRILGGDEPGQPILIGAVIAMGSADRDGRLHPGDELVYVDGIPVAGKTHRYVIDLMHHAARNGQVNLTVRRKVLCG

Binder	pKd
RLQRRRETQV [HPV18-E6_-2P, P06463]	below the threshold

target: Inadl_5, Q8NI35; experiment: holdup assay; design: key: below the threshold = too weak to quantify, mostly under pKd 3.1 to 4; settings: modified: phospho on T at position -2 from the C-terminal residue
Sequence (Q8NI35 673-780): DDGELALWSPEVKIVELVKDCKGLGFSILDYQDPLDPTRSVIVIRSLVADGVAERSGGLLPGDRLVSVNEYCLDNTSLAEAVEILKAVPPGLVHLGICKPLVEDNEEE

Binder	pKd
RLQRRRETQV [HPV18-E6_-2P, P06463]	below the threshold

target: PDZRN4_1, Q6ZMN7; experiment: holdup assay; design: key: below the threshold = too weak to quantify, mostly under pKd 3.1 to 4; settings: modified: phospho on T at position -2 from the C-terminal residue
Sequence (Q6ZMN7 213-318): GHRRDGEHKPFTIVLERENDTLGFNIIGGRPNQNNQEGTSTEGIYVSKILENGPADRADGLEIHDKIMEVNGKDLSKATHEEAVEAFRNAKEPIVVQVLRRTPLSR

Binder	pKd
RLQRRRETQV [HPV18-E6_-2P, P06463]	below the threshold

target: T4, NHERF3_4, Q5T2W1; experiment: holdup assay; design: key: below the threshold = too weak to quantify, mostly under pKd 3.1 to 4; settings: modified: phospho on T at position -2 from the C-terminal residue
T4 sequence (Q5T2W1 373-468, limits assumed, looked up): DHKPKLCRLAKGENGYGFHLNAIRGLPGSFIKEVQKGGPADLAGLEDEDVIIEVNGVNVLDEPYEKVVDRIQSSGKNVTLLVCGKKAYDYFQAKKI

Binder	pKd
RLQRRRETQV [HPV18-E6_-2P, P06463]	below the threshold

target: MAST1, Q9Y2H9; experiment: holdup assay; design: key: below the threshold = too weak to quantify, mostly under pKd 3.1 to 4; settings: modified: phospho on T at position -2 from the C-terminal residue
Sequence (Q9Y2H9 962-1065): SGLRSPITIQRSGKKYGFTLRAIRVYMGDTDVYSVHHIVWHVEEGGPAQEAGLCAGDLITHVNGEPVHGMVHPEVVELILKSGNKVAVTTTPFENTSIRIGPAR

Binder	pKd
RLQRRRETQV [HPV18-E6_-2P, P06463]	below the threshold

target: DLG5_1, Q8TDM6; experiment: holdup assay; design: key: below the threshold = too weak to quantify, mostly under pKd 3.1 to 4; settings: modified: phospho on T at position -2 from the C-terminal residue
Sequence (Q8TDM6 617-713): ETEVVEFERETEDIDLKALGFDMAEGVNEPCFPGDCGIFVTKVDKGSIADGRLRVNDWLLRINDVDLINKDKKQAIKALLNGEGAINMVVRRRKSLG

Binder	pKd
RLQRRRETQV [HPV18-E6_-2P, P06463]	below the threshold

target: T5, GRIP1_7, Q9Y3R0; experiment: holdup assay; design: key: below the threshold = too weak to quantify, mostly under pKd 3.1 to 4; settings: modified: phospho on T at position -2 from the C-terminal residue
T5 sequence (Q9Y3R0 999-1096, limits assumed, looked up): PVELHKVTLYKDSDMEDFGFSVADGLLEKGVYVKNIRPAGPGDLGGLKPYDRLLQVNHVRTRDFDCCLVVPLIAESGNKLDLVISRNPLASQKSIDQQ

Binder	pKd
RLQRRRETQV [HPV18-E6_-2P, P06463]	below the threshold

target: T6, MPDZ_5, O75970; experiment: holdup assay; design: key: below the threshold = too weak to quantify, mostly under pKd 3.1 to 4; settings: modified: phospho on T at position -2 from the C-terminal residue
T6 sequence (O75970 695-796, limits assumed, looked up): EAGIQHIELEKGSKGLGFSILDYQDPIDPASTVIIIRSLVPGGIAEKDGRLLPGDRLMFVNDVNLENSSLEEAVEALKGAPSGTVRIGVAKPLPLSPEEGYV

Binder	pKd
RLQRRRETQV [HPV18-E6_-2P, P06463]	below the threshold

target: MAGI2_3, Q86UL8; experiment: holdup assay; design: key: below the threshold = too weak to quantify, mostly under pKd 3.1 to 4; settings: modified: phospho on T at position -2 from the C-terminal residue
Sequence (Q86UL8 600-682): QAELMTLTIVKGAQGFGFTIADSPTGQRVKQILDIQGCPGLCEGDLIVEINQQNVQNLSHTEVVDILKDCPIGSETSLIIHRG

Binder	pKd
RLQRRRETQV [HPV18-E6_-2P, P06463]	below the threshold

target: LIMK2, P53671; experiment: holdup assay; design: key: below the threshold = too weak to quantify, mostly under pKd 3.1 to 4; settings: modified: phospho on T at position -2 from the C-terminal residue
Sequence (P53671 143-248): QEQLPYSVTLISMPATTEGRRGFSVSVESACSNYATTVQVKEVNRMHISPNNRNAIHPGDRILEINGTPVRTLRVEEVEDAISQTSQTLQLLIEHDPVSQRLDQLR

Binder	pKd
RLQRRRETQV [HPV18-E6_-2P, P06463]	below the threshold

target: DLG2_3, Q15700; experiment: holdup assay; design: key: below the threshold = too weak to quantify, mostly under pKd 3.1 to 4; settings: modified: phospho on T at position -2 from the C-terminal residue

Binder	pKd
RLQRRRETQV [HPV18-E6_-2P, P06463]	3.88

target: T7, SNTA1, Q13424; experiment: holdup assay; design: key: below the threshold = too weak to quantify, mostly under pKd 3.1 to 4; settings: modified: phospho on T at position -2 from the C-terminal residue
T7 sequence (Q13424 82-180, limits assumed, looked up): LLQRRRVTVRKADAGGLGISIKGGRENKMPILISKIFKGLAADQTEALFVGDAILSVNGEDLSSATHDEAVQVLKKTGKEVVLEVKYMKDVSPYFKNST

Binder	pKd
RLQRRRETQV [HPV18-E6_-2P, P06463]	below the threshold

target: GRIP2_7, Q9C0E4; experiment: holdup assay; design: key: below the threshold = too weak to quantify, mostly under pKd 3.1 to 4; settings: modified: phospho on T at position -2 from the C-terminal residue
Sequence (Q9C0E4 934-1023): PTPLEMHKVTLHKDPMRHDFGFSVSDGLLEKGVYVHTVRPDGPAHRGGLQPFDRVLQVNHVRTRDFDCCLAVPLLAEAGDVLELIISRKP

Binder	pKd
RLQRRRETQV [HPV18-E6_-2P, P06463]	below the threshold

target: T8, LRRC7, Q96NW7; experiment: holdup assay; design: key: below the threshold = too weak to quantify, mostly under pKd 3.1 to 4; settings: modified: phospho on T at position -2 from the C-terminal residue
T8 sequence (Q96NW7 1440-1537, limits assumed, looked up): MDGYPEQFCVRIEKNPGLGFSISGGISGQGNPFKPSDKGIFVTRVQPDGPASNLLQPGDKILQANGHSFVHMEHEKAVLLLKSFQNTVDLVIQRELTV

Binder	pKd
RLQRRRETQV [HPV18-E6_-2P, P06463]	below the threshold

target: T9, NHERF3_3, Q5T2W1; experiment: holdup assay; design: key: below the threshold = too weak to quantify, mostly under pKd 3.1 to 4; settings: modified: phospho on T at position -2 from the C-terminal residue
T9 sequence (Q5T2W1 238-333, limits assumed, looked up): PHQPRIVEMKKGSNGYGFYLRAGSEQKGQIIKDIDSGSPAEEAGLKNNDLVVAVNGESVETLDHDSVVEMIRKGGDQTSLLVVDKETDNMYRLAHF

Binder	pKd
RLQRRRETQV [HPV18-E6_-2P, P06463]	below the threshold

target: T10, TX1BP3, O14907; experiment: holdup assay; design: key: below the threshold = too weak to quantify, mostly under pKd 3.1 to 4; settings: modified: phospho on T at position -2 from the C-terminal residue
T10 sequence (O14907 10-122, limits assumed, looked up): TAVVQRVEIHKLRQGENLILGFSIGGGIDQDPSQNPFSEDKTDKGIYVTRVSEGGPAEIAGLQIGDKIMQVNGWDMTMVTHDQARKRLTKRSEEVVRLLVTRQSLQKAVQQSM

Binder	pKd
RLQRRRETQV [HPV18-E6_-2P, P06463]	below the threshold

target: T11, MPP7, Q5T2T1; experiment: holdup assay; design: key: below the threshold = too weak to quantify, mostly under pKd 3.1 to 4; settings: modified: phospho on T at position -2 from the C-terminal residue
T11 sequence (Q5T2T1 134-230, limits assumed, looked up): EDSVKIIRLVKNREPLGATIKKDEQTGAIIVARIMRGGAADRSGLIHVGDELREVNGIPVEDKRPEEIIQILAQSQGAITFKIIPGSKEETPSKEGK

Binder	pKd
RLQRRRETQV [HPV18-E6_-2P, P06463]	below the threshold

target: T12, GRIP1_3, Q9Y3R0; experiment: holdup assay; design: key: below the threshold = too weak to quantify, mostly under pKd 3.1 to 4; settings: modified: phospho on T at position -2 from the C-terminal residue
T12 sequence (Q9Y3R0 247-346, limits assumed, looked up): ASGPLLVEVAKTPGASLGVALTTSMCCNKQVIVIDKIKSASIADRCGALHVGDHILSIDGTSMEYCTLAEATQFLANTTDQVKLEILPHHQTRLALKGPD

Binder	pKd
RLQRRRETQV [HPV18-E6_-2P, P06463]	below the threshold

target: DLG2_2, Q15700; experiment: holdup assay; design: key: below the threshold = too weak to quantify, mostly under pKd 3.1 to 4; settings: modified: phospho on T at position -2 from the C-terminal residue

Binder	pKd
RLQRRRETQV [HPV18-E6_-2P, P06463]	3.48

target: GRID2IP_2, A4D2P6; experiment: holdup assay; design: key: below the threshold = too weak to quantify, mostly under pKd 3.1 to 4; settings: modified: phospho on T at position -2 from the C-terminal residue
Sequence (A4D2P6 272-370): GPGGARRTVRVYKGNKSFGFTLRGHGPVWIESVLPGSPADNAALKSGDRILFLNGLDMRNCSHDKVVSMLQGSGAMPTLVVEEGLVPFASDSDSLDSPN

Binder	pKd
RLQRRRETQV [HPV18-E6_-2P, P06463]	below the threshold

target: DLG1_2, Q12959; experiment: holdup assay; design: key: below the threshold = too weak to quantify, mostly under pKd 3.1 to 4; settings: modified: phospho on T at position -2 from the C-terminal residue
Sequence (Q12959 314-412): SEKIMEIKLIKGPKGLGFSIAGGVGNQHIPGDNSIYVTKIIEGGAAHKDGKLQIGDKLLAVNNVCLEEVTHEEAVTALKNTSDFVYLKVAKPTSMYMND

Binder	pKd
RLQRRRETQV [HPV18-E6_-2P, P06463]	below the threshold

Reference: publication PMC9482650, “Quantitative fragmentomics allow affinity mapping of interactomes” (Nature Communications, 2022)
